Test results: PMC10031729, “Interaction of methionine sulfoxide reductase B5 with SlMYC2 stimulates the transcription of MeJA-mediated autophagy-related genes in tomato fruit”

Experiments:
[1] = molecular target: T1, MBP-SlMYC2 (Solanum lycopersicum, UniProt A0A3Q7HRZ6 1-689); experiment: EMSA; Chemiluminescent EMSA kit (Beyotime); buffer, salt, pH and temperature not stated; settings: protein: recombinant; tags: N-terminal MBP; chain copies: 2; label: biotin
[2] = molecular target: T1, MBP-SlMYC2; experiment: competition; unlabeled mutant competitor vs SlATG13a probe; Chemiluminescent EMSA kit (Beyotime); buffer, salt, pH and temperature not stated; settings: protein: recombinant; tags: N-terminal MBP; chain copies: 2
[3] = molecular target: T1, MBP-SlMYC2; experiment: competition; unlabeled mutant competitor vs SlATG13b probe; Chemiluminescent EMSA kit (Beyotime); buffer, salt, pH and temperature not stated; settings: protein: recombinant; tags: N-terminal MBP; chain copies: 2
[4] = molecular target: T1, MBP-SlMYC2; experiment: competition; unlabeled mutant competitor vs SlATG18a probe; Chemiluminescent EMSA kit (Beyotime); buffer, salt, pH and temperature not stated; settings: protein: recombinant; tags: N-terminal MBP; chain copies: 2
[5] = molecular target: T1, MBP-SlMYC2; experiment: competition; unlabeled mutant competitor vs SlATG18h probe; Chemiluminescent EMSA kit (Beyotime); buffer, salt, pH and temperature not stated; settings: protein: recombinant; tags: N-terminal MBP; chain copies: 2

T1 sequence (A0A3Q7HRZ6 whole entry): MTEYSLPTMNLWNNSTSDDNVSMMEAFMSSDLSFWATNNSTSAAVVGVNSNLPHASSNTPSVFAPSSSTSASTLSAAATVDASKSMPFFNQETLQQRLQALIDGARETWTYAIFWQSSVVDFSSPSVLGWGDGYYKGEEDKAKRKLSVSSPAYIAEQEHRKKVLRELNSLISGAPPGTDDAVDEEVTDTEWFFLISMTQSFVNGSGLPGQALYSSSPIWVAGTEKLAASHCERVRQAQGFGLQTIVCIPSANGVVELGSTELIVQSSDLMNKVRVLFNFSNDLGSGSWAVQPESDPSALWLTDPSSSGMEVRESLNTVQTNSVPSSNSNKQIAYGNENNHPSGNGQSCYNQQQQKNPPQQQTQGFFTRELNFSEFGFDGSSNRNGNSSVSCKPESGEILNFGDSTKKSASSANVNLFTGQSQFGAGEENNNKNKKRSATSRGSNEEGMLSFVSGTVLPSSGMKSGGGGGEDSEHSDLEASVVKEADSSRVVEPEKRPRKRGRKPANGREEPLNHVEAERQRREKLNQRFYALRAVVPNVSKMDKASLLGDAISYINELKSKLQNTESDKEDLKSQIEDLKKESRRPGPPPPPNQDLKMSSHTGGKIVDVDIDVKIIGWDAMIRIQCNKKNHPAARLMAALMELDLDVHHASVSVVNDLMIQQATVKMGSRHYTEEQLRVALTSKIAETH

Binder	binding result [1]	further results
SlATG13a promoter probe (dsDNA) DNA 1: GAGAACACTTGCTATGTCACGTGCTAAATT DNA 2: AATTTAGCACGTGACATAGCAAGTGTTCTC	binds	
SlATG13b promoter probe (dsDNA) DNA 1: TTTCTTTGTTTCACACGTTCTTTTTACTTC DNA 2: GAAGTAAAAAGAACGTGTGAAACAAAGAAA	binds	
SlATG18a promoter probe (dsDNA) DNA 1: GGATTGGATCTACACGTGGCATGTAGGATA DNA 2: TATCCTACATGCCACGTGTAGATCCAATCC	binds	
SlATG18h promoter probe (dsDNA) DNA 1: ATTCCATATAACACATGTCTCCGTTTCATC DNA 2: GATGAAACGGAGACATGTGTTATATGGAAT	binds	
SlATG13a mutant probe (G/E-box to TTTTTTTT) (dsDNA) DNA 1: GAGATTTTTTTTTATGTTTTTTTTTAAATT DNA 2: AATTTAAAAAAAAACATAAAAAAAAATCTC		binding result [2]: no binding
SlATG13b mutant probe (G/E-box to TTTTTTTT) (dsDNA) DNA 1: TTTCTTTGTTTCTTTTTTTTTTTTTACTTC DNA 2: GAAGTAAAAAAAAAAAAAGAAACAAAGAAA		binding result [3]: no binding
SlATG18a mutant probe (G/E-box to TTTTTTTT) (dsDNA) DNA 1: GGATTGGATCTTTTTTTTTCATGTAGGATA DNA 2: TATCCTACATGAAAAAAAAAGATCCAATCC		binding result [4]: no binding
SlATG18h mutant probe (G/E-box to TTTTTTTT) (dsDNA) DNA 1: ATTCCATATATTTTTTTTCTCCGTTTCATC DNA 2: GATGAAACGGAGAAAAAAAATATATGGAAT		binding result [5]: no binding
